Measured values taken from patent US6570069B1, “Nucleic acids encoding plant inhibitors of apoptosis and transgenic cells and plants expressing them” (priority 2000, dated 2003).
“Also recorded” adds a separate entry of the source.

Legend:
[1] = system: caspase-3 and similar DEVD-cleaving proteases in cell extracts treated with cyto c; experiment: Cell-free caspase activation induced by cyto c in HEK 293 cytosolic extracts; format: biochemical, human; details: for suppression of pro-caspase-3 processing (immunoblot): cyto c-treated extracts; for effect on hydrolysis of Ac-DEVD-AFC (caspase activity): recombinant protein, cell extracts treated with cyto c
Description: (§1) Caspase activity was assayed by release of 7-amino-4-trifluoromethyl-coumarin (AFC) from Ac-DEVD or Ac-LEHD-containing synthetic peptides (Calbiochem) using continuous-reading instuments as described (Quan, L. T. et al., (1995) J. Biol. Chem. 270:10377-10379).
(§2) Cytosolic extracts were prepared as described (Deveraux, Q., Takahashi, R., Salvesen, G. S. & Reed, J. C. (1997) Nature 388, 300-303) using human embryonic kidney (HEK) 293 cells. Cells were washed with ice-cold buffer A (20 mM HEPES pH 7.5, 10 mM KCl, 1.5 mM MgCl2, 1 mM EDTA and 1 mM DTT), suspended in 1 volume of buffer A, incubated on ice for 20 mins, and then disrupted by 15 passages through a 26-gauge needle. Cell extracts were purified by centrifugation at 15000 g for 12 mins and supernatants were stored at −80 ° C. For initiating caspase activation, either 100 nM of purified recombinant caspase-8 or 1 μM horse heart cytochrome c (Sigma) together with 1 mM dATP was added to extracts (Deveraux, Q. L., et al., (1998) EMBO J. 17, 2215-2223).
(§3) To further explore the mechanisms by which SfIAP and CpIAP inhibit mammalian apoptosis, a cell-free system in which exogenously added active caspase-8 or cyto c induces activation of caspase-3 and similar proteases, as measured by hydrolysis of Ac-DEVD-AFC (Quan, L. T. et al., (1995) J. Biol. Chem. 270, 10377-10379) was used. Caspase-8 and cyto c trigger the same apoptosis pathways in extracts which are activated by Fas and Bax in intact cells.

[2] = system: DEVD-cleaving proteases in cell extracts treated with caspase-8; experiment: Cell-free caspase activation induced by active caspase-8 in HEK 293 cytosolic extracts; format: biochemical, human; details: recombinant protein
Description: as §1, §2
as §3, with “Caspase-8 and cyto c trigger the same apoptosis pathways in extracts which are activated by Fas and Bax in intact cells.” left out

[3] = system: recombinant active caspase-9; experiment: Enzyme inhibition assay with recombinant active caspase-9 and Ac-LEHD-AFC; format: biochemical, mammalian; details: Ac-LEHD-AFC substrate
Description: pGEX4T-1-SfIAP and pGEX4T-1 -CpIAP plasmids were introduced into E. coli strain BL21 (DE3) containing the plasmid pT-Trx. GST fusion proteins were obtained by induction with 0.05 mM IPTG at 25° C. for 8 hours, then purified using glutathione-Sepharose, essentially as described (Deveraux, Q., Welsh, K. & Reed, J. Methods of Enzymology in press). Caspases-3, and -7, containing C-terminal His6-tags, and caspase-8 containing an N-terminal His6-tag were purified as described previously (Stennicke, H. R. & Salvesen, G. S. (I1997) J. Biol. Chem. 272, 25719-25723; Stennicke, H., et al., (1998) J. Biol. Chem. 273, 27084-27090; Stennicke, H., et al., (1999) J. Biol. Chem. 274, 8359-8362). Caspase-9 lacking the CARD domain (ΔCARD-caspase-9) was constructed by truncating the cDNA and introducing a start codon substituting Val139. The resulting cDNA was subcloned into pET-23b and expressed in BL21 (DE3), yielding fully processed enzyme when cells were induced using 0.2 mM IPTG at OD600=0.6 for 4 hrs (Stennicke, H., Deveraux, Q., Humike, E., Reed, J., Dixit, V. & Salvesen, G. (1999) J. Biol. Chem. 274, 8359-8362). All expressed caspases were purified by Ni-chelation affinity-chromatography, as described (Stennicke, H., et al., (1999) J. Biol. Chem. 274, 8359-8362; Stennicke, H. R. & Salvesen, G. S. (1997) J. Biol. Chem. 272, 25719-25723; Stennicke, H., et al., (1998) supra). Concentrations of purified enzymes were determined from absorbance at 280 nm based on the molar absorption coefficients: caspase-3 (A280=26,000M−1 cm−1), caspase-7 (A280=24,500 M−1 cm−1), caspase-9 (A280=30,010M−1 cm−1).
as §1
To directly examine the possibility that SfIAP and CpLAP inhibit caspase-9, enzyme inhibition assays were performed using bacteria-produced recombinant active caspase-9, recombinant-purified SfIAP and CpIAP, and Ac-LEHD-AFC as a caspase-9 substrate.

[4] = target: T1, pro-caspase-9 (Homo sapiens, UniProt P55211); experiment: GST pull-down binding of [35S]-pro-caspase-9; set-up: species or system mammalian; details: GST fusion protein on glutathione-Sepharose
T1 construct: host or cells: cell-free in vitro transcription/translation
T1 sequence (P55211 1-416): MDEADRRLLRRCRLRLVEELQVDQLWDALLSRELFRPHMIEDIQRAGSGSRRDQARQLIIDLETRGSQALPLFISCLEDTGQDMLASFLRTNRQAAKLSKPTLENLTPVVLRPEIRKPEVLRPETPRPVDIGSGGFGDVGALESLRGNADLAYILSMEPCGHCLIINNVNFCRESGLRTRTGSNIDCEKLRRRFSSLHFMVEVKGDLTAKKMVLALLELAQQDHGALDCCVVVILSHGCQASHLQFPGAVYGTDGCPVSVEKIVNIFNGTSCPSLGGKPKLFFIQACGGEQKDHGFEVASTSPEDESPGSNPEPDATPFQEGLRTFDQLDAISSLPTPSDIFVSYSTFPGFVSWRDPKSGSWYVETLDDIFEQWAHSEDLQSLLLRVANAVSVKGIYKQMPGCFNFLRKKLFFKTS
Description: [^35S]Pro-caspase-9 was in vitro transcribed and translated in the presence of [^35S]L-methionine using TNT kit from Promega. Protein were desalted and exchanged into buffer (20 mM HEPES pH 7.5, 10 mM KCl, 1.5 mM MgCl2, 1 mM EDTA and 1 mM DTT) with Bio-spin P-6 columns (Bio-Rad). […] After incubation at 4 ° C. for 1 hour, beads were removed by centrifugation and washed twice with 0.5 ml of 50 mM Tris (pH 7.5), 150 mM NaCl, 2 mm DTT before analysis by SDS-PAGE and autoradiography.

B1: CpIAP: baculoviral (CpGV) inhibitor of apoptosis protein; complete ORF expressed myc-tagged or as GST-fusion (protein)
chain: MSDLRLEEVRLNTFEKWPVSFLSPETMAKNGFYYLGRSDEVRCAFCKVEIMRWKEGEDPAADHKKWAPQCPFVKGIDVCGSIVTTNNIQNTTTHDTIIGPAHPKYAHEAARVKSFHNWPRCMKQRPEQMADAGFFYTGYGDNTKCFYCDGGLKDWEPEDVPWEQHVRWFDRCAYVQLVKGRDYVQKVITEACVLPGENTTVSTAAPVSEPIPETKIEKEPQVEDSKLCKICYVEECIVCFVPCGHVVACAKCALSVDKCPMCRKIVTSVLKVYFS
modifications: left off: a dimerising Fc or GST
notes: complete ORF expressed myc-tagged or as GST-fusion
- suppression of pro-caspase-3 processing (immunoblot) [1]: suppressed the processing of pro-caspase-3 in cyto c-treated
- effect on hydrolysis of Ac-DEVD-AFC (caspase activity) [1]: completely blocked the hydrolysis of Ac-DEVD-AFC
- effect on DEVD-cleaving proteases [2]: no effect on DEVD-cleaving proteases
- inhibition of recombinant active caspase-9 [3]: inhibited recombinant active caspase-9 in a concentration-dependent manner; also recorded: direct inhibitors of mammalian caspase-9
- molar-excess relative to caspase-9 which produced ~50% inhibition of protease activity [3]: 12 fold
- binding to pro-caspase-9 (autoradiography) [4]: associated with pro-caspase-9

B2: SfIAP: cellular IAP cloned from Spodoptera frugiperda, protein of 377 amino acids (SEQ ID NO:3); GST-fusion when recombinant (protein, listed as Spodoptera frugiperda)
chain: MWSCSLPCWNTKKSGLQMDITKVASNGSSSTLTLFKSGSLEAKIRPLAPLMLPTPSYDSNAGSPSLSPSTPCSSSSFSIDKTDNHDTFGFSADTVDMRKEDERMKTFEKWPVSFLSGEQLARNGFYYLGRRDEARCAFCKVEIMRWVEGDDPAKDHQRWAPQCPFVRKLNGTAAADTGSSGQDECGARAAPSGTSPPRMAGPVHPRYASEAARLRSFKDWPRCMRQKPEELAEAGFFYTGQGDKTKCFYCDGGLKDWENHDVPWEQHARWFDRCAYVQLVKGREYVQKVISEACEVSASEAERDVAPARTAEPSPPAEAPENSVDDSKLCKICYAEERNVCFVPCGHVVACAKCALAADKCPMCRRTFQNAVRLYFS
modifications: GST fusion when recombinant; fall armyworm inhibitor of apoptosis protein (SfIAP)
- suppression of pro-caspase-3 processing (immunoblot) [1]: suppressed the processing of pro-caspase-3 in cyto c-treated
- effect on hydrolysis of Ac-DEVD-AFC (caspase activity) [1]: completely blocked the hydrolysis of Ac-DEVD-AFC; also recorded: able to inhibit cyto c-induced activation of DEVD-cleaving caspases
- effect on DEVD-cleaving proteases [2]: no effect on DEVD-cleaving proteases
- inhibition of recombinant active caspase-9 [3]: inhibited recombinant active caspase-9 in a concentration-dependent manner; also recorded: direct inhibitors of mammalian caspase-9
- molar-excess relative to caspase-9 which produced ~50% inhibition of protease activity [3]: 8 fold
- binding to pro-caspase-9 (autoradiography) [4]: associated with pro-caspase-9
